In the nanobody polyreactivity screen of Harvey et al. (2022):

Assay: yeast display, Sf9 membrane polyspecificity reagent, FACS + sequencing; frameworks hold sequencing errors
Outline: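 A synthetic nanobody library was expressed on Saccharomyces cerevisiae BJ5465 by galactose induction for 36–48 hours. The library was stained for 1 hour at 4 °C with 10% biotinylated, detergent-solubilized Sf9 membrane reagent and enriched with streptavidin microbeads before FACS. Low and high (top ~1%) gates were set on anti-HA fluorescence for expression and streptavidin fluorescence for reagent binding, and each polyreactivity label reflects the gate of origin.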
With “QVQLEESGGGLVHAGGSLPLSCAASGGTFYKYAMGSYRQAPGKERELVARISRCGSTYYADSVNGRFTISRDNAKNTVYLQMNSLKPEDTAVYYCAKRWFAGWPIVVPYNYWGQGTQVTVSS” the “polyreactivity (PSR sort gate)” value was “high polyreactivity”.
In the case of “QVQLVESGGGLVQAGGSLRLSCAASGRIFAWNDMGWYRQAPGKERELLPLFWSGGSTYYADSVKGRFTIARDNAKNTGYLQRNSLKPEDTAVYYCNKDSPPITPYDYWGQGTQVTVSS”, the “polyreactivity (PSR sort gate)” value is reported as “low polyreactivity”.
For “QVQLVESGGGLVQAGGSLRLSCAASGFISYYYAMGWYRQAPGKEREFVAAITSSGGSTRYADSVKGRFTISRDNAKNTVYLQMNSLKPEDTAVYYCAAGNPYFWPYDYWGQGTQVTVSS”, the “polyreactivity (PSR sort gate)” value was “low polyreactivity”.
With “QVQLVESGGGLVQAGGSLRLSCAASGSTFYYYGMGWYRQAPGKERELVATISGSGGSTYYADSVKGRFTITRDNAKNTVYLQMNSLTQEDTSVYYCNKDVLPSQTYSNVYWGQGTQVSVSS” the “polyreactivity (PSR sort gate)” value was “low polyreactivity”.
In the case of “QVQLVESGGGVVQAGGSLRLSCAASGFIFHQNAMGWYRPAPGKERELVAAITRSGTSTYYADSVKGRFTISRDYAKNTVYLQMYSLKPEDTAVYYCANDPVRVGRFGYEYWGQGTQVTVSS”, the “polyreactivity (PSR sort gate)” value is reported as “low polyreactivity”.
In the case of “QVQLVESGGGLVQAGGSLRLSCAASGRIFYRYAMGWYRQAPGKERELVASITSGGSTTYYADSVKGRFTISRDNAKNTVYLQMNSLKPEDTAVYYCAARPRYRKEYDYWGQGTQVTVSS”, the “polyreactivity (PSR sort gate)” value is reported as “high polyreactivity”.
In the case of “QVQLVESGGGLVQAGGSLRLSCAASGRTFRLYAMGWYRQAPGKERELVAAITRGGRTNYADSVKGRFTISRDNAKNTVYLQMNSLNPEDTAVYYCAARYVERHTDYYYWGQGTQVTVSS”, the “polyreactivity (PSR sort gate)” value is reported as “low polyreactivity”.
In the case of “QVQLVESGGGLVQAGGSLRLSCAASGSTFQWYVMGWYRQAPGKERELVAAITWSGGSTYYADSVKGRFTISRDNAKNTVYLQMNSLKPEDTAVYYCNAVFWIWNAGYDYWGQGTQVTVSS”, the “polyreactivity (PSR sort gate)” value is reported as “low polyreactivity”.
For “QVQLVESGGGLVQAGGSLRLSCAASGRTFSGYAMGWYRQAPGKERELVAAISSGGGSTYYADSVKGRFTISRDNAKNTVYLQMNSLKPEDTAVYYCAADGYPGDYDYWRQGTQVTVSS”, the “polyreactivity (PSR sort gate)” value was “low polyreactivity”.
For “QVQLVESGGGLVQAGGSLRLSCAASGRIIRAYAMGWYRQAPGKERELVAAISGGSNTNYADSVKGRFKISRDNAKNTVYLQMNSLKPDDTAVYYCAADAGYWESLWYPYGFYWGQGTQVSVSS”, the “polyreactivity (PSR sort gate)” value was “low polyreactivity”.
With “QVQLVESGGGLVQAGGSLRLSCAASGLTFYGYVMGWYRQAPGKERELVASISRSGGRTYYADSVKGRFTISRDNAKNTVYLQMNSLKPEDTAVYYCAAADQVGQEDDYWGQGTQVTVSS” the “polyreactivity (PSR sort gate)” value was “low polyreactivity”.
For “QVQLLESGGGLVQAGGSLRLSCAASGSTFTNYAMGWYRQAPGKERELVAAITSGGSTYYADSVKGRCTISRDNAKNTVYLQMNSLKPEDTAVYYCNAVYFSEYDSWGQGTLVTVSS”, the “polyreactivity (PSR sort gate)” value was “low polyreactivity”.
For “QVQLVESGVGLVQAGGSLRISCAASGFIFVTNVMGWYRQAPGKEREFVAAITARGGTTYYADSVKGRFTISRDNAKNTVYLQMNRLKPEDTAVYYCAAGYGVIKSLSHFYYWGQGTQVTVSS”, the “polyreactivity (PSR sort gate)” value was “low polyreactivity”.
With “QVQLVESGGGLVQAGGSLRLSCAASGYTFYSNAMGWYRQAPRKERELVASIRSRGRSTYYADSVKGRFTISRDNAKNTVDLQMNSLKPEDTAVYYCAALPNKPAVYAYDYWGQGTQVTVSS” the “polyreactivity (PSR sort gate)” value was “low polyreactivity”.
For “QVQLVESGGGLVQAGGSLRISCAASGFTFSAYAMGWYRQAPGKERELVAAISGSGGRTYYADSVKGRFTISRDNAKNTVYLQMNSLKPEDTAVYYCATSTAGGRETVSQYRYYWGHGTQVTVSS”, the “polyreactivity (PSR sort gate)” value was “high polyreactivity”.
For “QVQLVESGGGLVQAGGSLRLSCAASGLTFQYNAMGWYRQAPGKERELVAVISWSGGSTYYADSVKGRFTISRDNAMNTVYLQMNSLIPEDTAVYYCNAVGFVWYFDVYSYFTEFKYDYWGQGTQVTVSS”, the “polyreactivity (PSR sort gate)” value was “low polyreactivity”.
With “QVQLVESGGGLVQAGGSLRLTCAASGFIFYSYAMGWYRQAPGKERELVAAISTSGGSTYYADSVKGRFTISRDNAKNTVYLQMNSLKPEDTAVYYCAVGRKFGRYRVPFVVPYEYWGQGTQVTVSS” the “polyreactivity (PSR sort gate)” value was “high polyreactivity”.
For “QVQLVESCGGLVQAGGSLRLSCAASGRTFGRNAMGWYRQAPGEREMVAVISRGGSTYYADSVKGRFTISRDNAKNTVYLQMNSLKPEDTAVYYCNADTVYTRTAPYDYWGQGTQVTVSS”, the “polyreactivity (PSR sort gate)” value was “low polyreactivity”.
For “QVQLVETGGGLVQAGGSLRLSCAASGGIFLVNDMGWYRPAPGKERELVAAISGSGGSTYYADSVKGRVTISRDNAKNTVYLQMNSLKPEDTAVYYCAAVGTHKAGGAYNYWGQGTQVTVSS”, the “polyreactivity (PSR sort gate)” value was “low polyreactivity”.
For “QVQLLESGGGLVQAGGRLRLSCAPSGRSIRYYTMGWYRQAPGKERELVAAISRSGDSTYYADSVKGRFTISRDNEKNTVYVQLKCLIPVDTAVYYCAASLVYQFCYDYWGQGTQVSVSS”, the “polyreactivity (PSR sort gate)” value was “high polyreactivity”.
For “QVQLVESGGGLVQAGGSLRLSCAASGRTFWWYAMGWYRQAPGKERELVADINGSGGSTYYADSVKGRFTISRDNAKHTVYLQMNSLKPEDTAVYYCAADYYRYIHSVVYSIYDYWGQGTQVTVSS”, the “polyreactivity (PSR sort gate)” value was “low polyreactivity”.
In the case of “QVQLVESGGGLVQAGGSLRLSCAASGSNWSYAMGWYSQAPGKESVLVATISRRGGSTYYADSVKGRFTISRDNAKNTVYLQMNSLKPEDTAVYYCAAAESASSFRFDYWGQGTQETVSS”, the “polyreactivity (PSR sort gate)” value is reported as “high polyreactivity”.
With “QVQLVESGGGLVQAGGSLRLSCAASGLTFSVYAMGWYRQAPGKERELVAAITRNGGSTYYADSVKGRFTISRDNAKNTVYLQMNSLKTEDTAVYYCAADASSKLYDYWGQGTQVSVSS” the “polyreactivity (PSR sort gate)” value was “low polyreactivity”.
For “QVQLVESGGGLVQAGGSLRLSCAASGFTFQENAMGWYRQAPGKERELVAAISYGGGSTYYADSVKGRFTISRDNAKNTVYLQMNSLKPEDTAVYYCAADGGSAYAWYFAELYGYWGQGTQVTVSS”, the “polyreactivity (PSR sort gate)” value was “low polyreactivity”.
In the case of “QVQLVESGGGLVQAGGSLRLSCAASGRTFVYYAMGWYRQAPGKEREFVAAISRSGGHTSYADSVKGRFTISRDNAKNTVYLQMNSLKPEDTAVYYCAAEKRTQPTSREYYWGQGTQVTVSS”, the “polyreactivity (PSR sort gate)” value is reported as “high polyreactivity”.
With “QVQLVESGGGLVQAGGSLRLSGAASGFTFDNNAMGWYRQAPGKEREMVAAITGRGSRTNYADSVKGRFTISRDNAKNTVYLQMNSLKPEDTAVYYCATRLWVYGEGSFDDWGQGTQVTVSS” the “polyreactivity (PSR sort gate)” value was “high polyreactivity”.
For “QVQLVESGGGLVQEGGSLRLSCAASGRIFNTNAMGWSRQAPGKERELVAGITDSGDSTYDADSVKGRFTISRDNAKNTVYLQMYSLKPEDTGVYYCATDPASPYIYDYWGQGTQVTVSS”, the “polyreactivity (PSR sort gate)” value was “low polyreactivity”.
In the case of “QVQLVESGGGLVQAGGSLSLSCAASGIFSRYAMGWYRQAPGKERELVAAISSGGSTYYAESVKGRFTISRDNAKNTVYLQMNSLKPEDTAVYYCSVKQRDKFAGGRNDYWGQGTQVTVSS”, the “polyreactivity (PSR sort gate)” value is reported as “high polyreactivity”.
With “QVQLVESGGGLVQAGGSLRLSCAASGRIFHRYDMGWDRQAPGKEREFVAAISSRGGSTYYADSVKGRVTISRDYAKNTVYLQMNSLKPEDTAVYYCAAQNGYRSGEFYYWGQGTQVTVSP” the “polyreactivity (PSR sort gate)” value was “high polyreactivity”.
With “QVQIVESRVGLVQAGGSLRLSCAASGLTFYYYAMGWYRQAPGKERELVAAIDGSGGITYYEDSLKARFTISRDNEKNTVYLQMNSLKPEDTAVYYCAAERVVGDAYDYWGQGTQVTVSS” the “polyreactivity (PSR sort gate)” value was “high polyreactivity”.
With “QVQLVESGGGLVQAGGSLRLSCAASGRIFRNYAMGWYRQAPGKERELVAAISTRSGSTYYADSVKGRFTISRDNAKNTVYLQMNSLKPEDTAVYYCNKVSVGRYYALYYWGQGTKVTVSS” the “polyreactivity (PSR sort gate)” value was “high polyreactivity”.
For “QVQLVESGGGLVQAGGSLRLSCAASGSTFPGNAMGWYRQAPGKERELVAAITSSGGSTDYADSVKGRFTISRDNAKNTVYLQMNSLKPEDTAVYYCNAKDAEHYERFNYWGQGTQVTVSS”, the “polyreactivity (PSR sort gate)” value was “low polyreactivity”.
In the case of “QVQLLESGGGLVQAGGSLRLSCAASGFTFQYYAMGWYRQAPGKERELVAAITRGDSTNYADSVKGRFTISRDNAKNTVYLQMNSLKPEDTAVYYCAAGSAPSYWGGWYYERDYWGQGTQVTVSS”, the “polyreactivity (PSR sort gate)” value is reported as “low polyreactivity”.
For “QVQLVESGGGLVQAGGSLRLSCAASGYIFRSYAMGWYRQAPGKERELVAAITRSGGSTYYADSVKGRFTISRDNAKNTVYLQMNSLKPEDTAVYYCAVLPRGSNGMDYWGQGTQVTVSS”, the “polyreactivity (PSR sort gate)” value was “low polyreactivity”.
For “QVQHVESGGGLVQAGGSLRLTCAASGSTSPTNVMGWYRQAPGKERELVAAISYSGGRTYYADSVKGRFTISRDNAKKTVYLQMNSLKPEDTAVYYCAARSLKRKYESWGQGTQVTVSS”, the “polyreactivity (PSR sort gate)” value was “high polyreactivity”.
With “QVQLVESAGGLVQAGGSLRLSCAASGSTFGLNAMGRYRQAPGKERELVAAITRSGATTYYADSVKGRFTISRDNAKNTVYLKMNSLKPEDTAVYYCNKVYRPYTKRYYWGQGTQVTVSS” the “polyreactivity (PSR sort gate)” value was “high polyreactivity”.
In the case of “QVQLVESGGGLVQAGGSLRLSCAASGSIFDTYAMGWYRQAPGKERELVAAITWSGSSTYYADSVKGRFTISRDNSKNTVYLQMNSLKPEDTAVYYCAKDYYREVTTEYDYWGQGTQVTVSS”, the “polyreactivity (PSR sort gate)” value is reported as “high polyreactivity”.
For “QVQLVESGGGLVQAGGSLRLSCAASGFTFRRYTMGWYRQAPGKERELVAAISGSGGSTYYADSVKGRFTISRDNAKNTVYLQMNSLKPEDTAVYYCNAPYLHYVIVFTDYSQRYDYWGQGTQVTVSS”, the “polyreactivity (PSR sort gate)” value was “high polyreactivity”.
With “QVQLVESGGGLVQAGGSLRLSCAASGFTFRWYTMGWYRQAPGKERELVASIRYGGGSTYYADSVKGRFTISRDNAKNTVYLQMNSLKPEDTAVYYCAAESAWTSQYDYWGVGTQVTVSS” the “polyreactivity (PSR sort gate)” value was “high polyreactivity”.
For “QVQLVESGGGLVQSGGSLRLSCAASGSINVYYAMGLYRQEPGKERDLVAAISASGGSTYYADSVKGRFTISRDNAKNTFYLQMKSLKPEDTAVYYCAADTFYSYYDMDYWGQGTQVTVSS”, the “polyreactivity (PSR sort gate)” value was “low polyreactivity”.
For “QVQLVESGGGLVQAGGSLRLSCAASGSTFWPYAMGWYRQAPGKERELVARINSGGNTNYADSVKGRFTISRDNAKNTVYLQMNSLKPEDTAVYYCAVRSLYEPRVYYRWVVGDGNYWGQGTQLTVSS”, the “polyreactivity (PSR sort gate)” value was “low polyreactivity”.
With “QVQLVESGGGLVQAGGSLRLSCAASGSIFWTYAMGWYRQAPGKERELVAGIRWSGGTTYADSVKGRFTISRDNAKNTVYLQMNSLKPEDTAVYYCNHYLSTYHGTFTYGYWGQGTQVTVSS” the “polyreactivity (PSR sort gate)” value was “low polyreactivity”.
With “QVQLVESGGGLVQAGGSLRLSCAASGSIFAYYAMGWYRQAPGKERELVARIRRRSSSTFYADSVKGRFTISRDNAKYTVYLQMNSLKPEDTAVYYCAVRGPGTSTYWYHEYEYWGQGTQVTVSS” the “polyreactivity (PSR sort gate)” value was “high polyreactivity”.
